US20230035798A1 (CAPELLA BIOSCIENCE, published 2023)
Numbering of substitutions follows the chain as printed. In names and notes the source's numbering stands. Each block holds one binder with its values, some of them ahead of it.

What was measured:
[1] = target: T1, human LIGHT (TNFSF14), full length, membrane-bound (214E allele) (human, UniProt O43557 1-240); assay: flow cytometry, HEK293FF human LIGHT cells (value given in the method)
T1 construct: also called membrane LIGHT; human membrane LIGHT
T1 sequence (O43557 whole entry K214E): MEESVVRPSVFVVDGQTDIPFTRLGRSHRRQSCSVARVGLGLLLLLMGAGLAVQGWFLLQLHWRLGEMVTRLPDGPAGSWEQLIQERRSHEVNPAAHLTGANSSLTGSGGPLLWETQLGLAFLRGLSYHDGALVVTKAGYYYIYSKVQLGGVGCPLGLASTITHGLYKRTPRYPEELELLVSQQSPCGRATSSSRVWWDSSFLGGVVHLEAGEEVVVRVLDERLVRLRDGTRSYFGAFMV

[2] = target: membrane LIGHT without residues 81-84 (EL4-NC-LIGHT cells) (human, UniProt O43557 1-240); assay: cell-based or functional assay
membrane LIGHT without residues 81-84 (EL4-NC-LIGHT cells), sequence (O43557 other isoform, or with tags, fused parts or gaps): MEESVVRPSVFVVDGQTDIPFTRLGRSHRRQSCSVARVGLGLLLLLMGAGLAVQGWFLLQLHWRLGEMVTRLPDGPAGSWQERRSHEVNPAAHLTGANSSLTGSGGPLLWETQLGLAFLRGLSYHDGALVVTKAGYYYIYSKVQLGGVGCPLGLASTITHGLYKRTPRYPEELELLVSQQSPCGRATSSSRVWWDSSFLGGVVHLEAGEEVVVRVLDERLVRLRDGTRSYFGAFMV

[3] = target: T1, human LIGHT (TNFSF14), full length, …; assay: flow cytometry, EL4-LIGHT cells

EC50 [1]: 15 nM
B1: LTβR-Fc (Fc fusion, UniProt P36941 28-227, looked up)
chain: SQPQAVPPYASENQTCRDQEKEYYEPQHRICCSRCPPGTYVSAKCSRIRDTVCATCAENSYNEHWNYLTICQLCRPCDPVMGLEEIAPCTSKRKTQCRCQPGMFCAAWALECTHCELLSDCPPGTEAELKDEVGKGNNHCVPCKAGHFQNTSSPSARCQPHTRCENQGLVEAAPGTAQSDTTCKNPLEPLPPEMSGTMLM
modifications: biotinylated (EZ-Link NHS-LC-Biotin) in the competition assays
notes: also called LTBR-Fc; biotin-LTβR-Fc; not shown: Fc part of the bought fusion protein

EC50 [1]: 45 nM
B2: HVEM-Fc (Fc fusion, UniProt Q92956 37-202, looked up)
chain: PALPSCKEDEYPVGSECCPKCSPGYRVKEACGELTGTVCEPCPPGTYIAHLNGLSKCLQCQMCDPAMGLRASRNCSRTENAVCGCSPGHFCIVQDGDHCAACRAYATSSPGQRVQKGGTESQDTLCQNCPPGTFSPNGTLEECQHQTKCSWLVTKAGAGTSSSHWV
modifications: biotinylated (EZ-Link NHS-LC-Biotin) in the competition assays
notes: also called biotin-HVEM-Fc; biotinylated HVEM-Fc; not shown: Fc part of the bought fusion protein

IC50, inhibition of IL-8 secretion from HT-29 cells (EL4-NC-LIGHT cells) [2]: 0.05 nM
EC50 [3]: 0.28 nM
B3: 3B04_var8 (antibody, human IgG4, V domains shown)
VH: QVQLVQSGAEVKKPGASVKVSCKASGYTFTDYEMHWVRQAPGQGLEWMGEIDPETGDTAYAQKFQGRVTLTADKSTSTAYMELSSLRSEDTAVYYCSRETDYFFDYWGQGTLVTVSS
VL: DIQMTQSPSSLSASVGDRVTITCGASENIYGALNWYQRKQGKAPKLLIYGATNLADGVPSRFSGSGSGRDYTLTISSLQPEDFATYYCQNVLTTPWTFGQGTKLEIKR
notes: human IgG4 (S241P, L248E, Kabat); also called 3B04 VL2VH4 (var8)

IC50, inhibition of IL-8 secretion from HT-29 cells (EL4-NC-LIGHT cells) [2]: 0.45 nM
EC50 [3]: 0.24 nM
B4: 3D12_var13 (antibody, human IgG4, V domains shown)
VH: B3 VH with G26D, Y32S, M34I, M48I, D57G, A61N, Q65K, V68A
VL: B3 VL with G24R, R38Q, Q40P, D56E, F83V, T93S
notes: human IgG4 (S241P, L248E, Kabat); also called 3D12 VL4VH1 (var13)

IC50, inhibition of IL-8 secretion from HT-29 cells (EL4-NC-LIGHT cells) [2]: 0.67 nM
EC50 [3]: 0.31 nM
B5: 3D12_var8 (antibody, human IgG4, V domains shown)
VH: B3 VH with Y32S, D57G
VL: B3 VL with F83V, T93S
notes: human IgG4 (S241P, L248E, Kabat); also called 3D12 VL2VH4 (var8)

IC50, inhibition of IL-8 secretion from HT-29 cells (EL4-NC-LIGHT cells) [2]: 0.53 nM
EC50 [3]: 0.33 nM
B6: 3D12_var3 (antibody, human IgG4, V domains shown)
VH: B3 VH with G26D, Y32S, M34I, D57G
VL: B3 VL with K45Q, P59S, F83V, T93S
notes: human IgG4 (S241P, L248E, Kabat); also called 3D12 VL1VH3 (var3)

IC50, inhibition of IL-8 secretion from HT-29 cells (EL4-NC-LIGHT cells) [2]: 0.66 nM
EC50 [3]: 0.32 nM
B7: 3D12_var4 (antibody, human IgG4, V domains shown)
VH: B3 VH with Y32S, D57G
VL: B3 VL with K45Q, P59S, F83V, T93S
notes: human IgG4 (S241P, L248E, Kabat); also called 3D12 VL1VH4 (var4)

IC50, inhibition of IL-8 secretion from HT-29 cells (EL4-NC-LIGHT cells) [2]: 0.47 nM
EC50 [3]: 0.31 nM
B8: 3D12_var6 (antibody, human IgG4, V domains shown)
VH: B3 VH with G26D, Y32S, M34I, M48I, D57G, A61N
VL: B3 VL with F83V, T93S
notes: human IgG4 (S241P, L248E, Kabat); also called 3D12 VL2VH2 (var6)

IC50, inhibition of IL-8 secretion from HT-29 cells (EL4-NC-LIGHT cells) [2]: 0.07 nM
EC50 [3]: 0.24 nM
B9: 3B04_var12 (antibody, human IgG4, V domains shown)
VH: B3 VH
VL: B3 VL with R38Q, Q40P
notes: human IgG4 (S241P, L248E, Kabat); also called 3B04 VL3VH4 (var12)

IC50, inhibition of IL-8 secretion from HT-29 cells (EL4-NC-LIGHT cells) [2]: 0.05 nM
EC50 [3]: 0.23 nM
B10: 3B04_var7 (antibody, human IgG4, V domains shown)
VH: B3 VH with L83F
VL: B3 VL
notes: human IgG4 (S241P, L248E, Kabat); also called 3B04 VL2VH3 (var7)

IC50, inhibition of IL-8 secretion from HT-29 cells (EL4-NC-LIGHT cells) [2]: 0.45 nM
EC50 [3]: 0.23 nM
B11: 3D12_var14 (antibody, human IgG4, V domains shown)
VH: B3 VH with G26D, Y32S, M34I, M48I, D57G, A61N
VL: B3 VL with G24R, R38Q, Q40P, D56E, F83V, T93S
notes: human IgG4 (S241P, L248E, Kabat); also called 3D12 VL4VH2 (var14)

IC50, inhibition of IL-8 secretion from HT-29 cells (EL4-NC-LIGHT cells) [2]: 0.71 nM
EC50 [3]: 0.36 nM
B12: 3D12_var9 (antibody, human IgG4, V domains shown)
VH: B3 VH with G26D, Y32S, M34I, M48I, D57G, A61N, Q65K, V68A
VL: B3 VL with R38Q, Q40P, F83V, T93S
notes: human IgG4 (S241P, L248E, Kabat); also called 3D12 VL3VH1 (var9)

IC50, inhibition of IL-8 secretion from HT-29 cells (EL4-NC-LIGHT cells) [2]: 0.44 nM
EC50 [3]: 0.39 nM
B13: 3D12_var10 (antibody, human IgG4, V domains shown)
VH: B3 VH with G26D, Y32S, M34I, M48I, D57G, A61N
VL: B3 VL with R38Q, Q40P, F83V, T93S
notes: human IgG4 (S241P, L248E, Kabat); also called 3D12 VL3VH2 (var10)

IC50, inhibition of IL-8 secretion from HT-29 cells (EL4-NC-LIGHT cells) [2]: 0.54 nM
EC50 [3]: 0.38 nM
B14: 3D12_var7 (antibody, human IgG4, V domains shown)
VH: B3 VH with G26D, Y32S, M34I, D57G
VL: B3 VL with F83V, T93S
notes: human IgG4 (S241P, L248E, Kabat); also called 3D12 VL2VH3 (var7)

IC50, inhibition of IL-8 secretion from HT-29 cells (EL4-NC-LIGHT cells) [2]: 0.55 nM
EC50 [3]: 0.34 nM
B15: 3D12_var11 (antibody, human IgG4, V domains shown)
VH: B3 VH with G26D, Y32S, M34I, D57G
VL: B3 VL with R38Q, Q40P, F83V, T93S
notes: human IgG4 (S241P, L248E, Kabat); also called 3D12 VL3VH3 (var11)

IC50, inhibition of IL-8 secretion from HT-29 cells (EL4-NC-LIGHT cells) [2]: 0.04 nM
EC50 [3]: 0.26 nM
B16: 3B04_var4 (antibody, human IgG4, V domains shown)
VH: B3 VH
VL: B3 VL with K45Q, P59S
notes: human IgG4 (S241P, L248E, Kabat); also called 3B04 VL1VH4 (var4)

IC50, inhibition of IL-8 secretion from HT-29 cells (EL4-NC-LIGHT cells) [2]: 0.33 nM
EC50 [3]: 0.22 nM
B17: 3D12_var1 (antibody, human IgG4, V domains shown)
VH: B3 VH with G26D, Y32S, M34I, M48I, D57G, A61N, Q65K, V68A
VL: B3 VL with K45Q, P59S, F83V, T93S
notes: human IgG4 (S241P, L248E, Kabat); also called 3D12 VL1VH1 (var1)
